Assay: soluble on expression in E. coli; label from the status in PepcDB or PDB records

Sequence | soluble on expression in E. coli
MSSANIPATQSALIFEKYGGPLEVRQVSVPQPQENELLVKIEYSGICHSDLHTWEGDFEYASICPLIGGHEGAGTVVTIGSKVKGWNIGDRAGIKLINANCLNCEYCKTGHEPLCDHIQNYGIDRHGTFQEYLTIRDIDAIKVSNDTNLAAAAPVLCGGVTAYKSLKATNVKPGQIVVLTGAGGGLGSFGIQYAKAMGMRVVAVDHISKEDHCRNLGAEWFVDAFDTPDIVAHIRKLTNGGAHGVVSFAAAKKPMEYALEYVRKRGTVVFVGLPKDGTIPLDTLSLICNEITVKGSIVGSRMDVDEAIDFITRGIVHVPIELVKLEDVPSVYQRMKDGKVTSRVVVDFSMR | not soluble
MSLDQAAVCLTICRINQLLSPSLLLKWWKADPSMSLTSPVLQTVTRDQIKAAALKNEIEQFYPKLPRVLAAYREQGINTIPISSKQYPFWLKSIYDPPAVLFAKGDMTLLSKGRKIGIVGTRNPTAYGKQVVNHLTKEICRKGWVIVSGLASGIDGMSHAASIKAKGRTIGVIAGGFQHIYPRENLQLADHMAKHHILLSEHPPETKPQKWHFPMRNRIISGLSEGVIVVQGKEKSGSLITAYQALEQGREVFAVPGSLFDPYAGGPIKLIQQGAKAIWSAEDIFEELPERNVQYTEPFEGHHHHHH | not soluble
MGHHHHHHSHGLPLWVSERILQQINQLTHYEPVIGIMGKTGAGKSSLCNALFAGEVSPVSDVAACTRDPLRFRLQIGEHFMTIVDLPGVGESGVRDTEYAALYREQLPRLDLILWLIKADDRALATDEHFYRQVIGEAYRHKMLFVISQS | not soluble
MSLAEPRNGESAGADAVLTKAIEDALGNGTGSVTVDLPQAEGKAKAGDLVTLRYTMTTADGALVATTEESVAADKGRPRSVAFTARSRYRPEEIVAGGEGNLPGVAEAVIGMAPGEKKHLSLSADKAFGARDPQRVVTMATVKSLPRTVAIPAADYVKNFGALPVVGKELPVVPYFPARVIEVTEQQAKLQLLARDGERFTESFGAVETKVDGESVKIRLVPTIGAPFEFRGARGTITAAGEENFTVDFNHPLADRSVVLDLEVVSLTKGEKLAAISVPWLENHDQGLEKAKQEEKPAVLVLYADWCQWCKKLFGETAEDPRIKAVSDRFVWIRVNSDKEKAYKEQYGQDGYPLIVLLDRQGKVAKKLDGFRDAAGLREELNALLEGHHHHHH | soluble
MEMLSGAEMVVRSLIDQGVKQVFGYPGGAVLDIYDALHTVGGIDHVLVRHEQAAVHMADGLARATGEVGVVLVTSGPGATNAITGIATAYMDSIPLVVLSGQVATSLIGYDAFQECDMVGISRPVVKHSFLVKQTEDIPQVLKKAFWLAASGRPGPVVVDLPKDILNPANKLPYVWPESVSMRSYNPTTTGHKGQIKRALQTLVAAKKPVVYVGGGAITAGCHQQLKETVEALNLPVVCSLMGLGAFPATHRQALGMLGMHGTYEANMTMHNADVIFAVGVRFDDRTTNNLAKYCPNATVLHIDIDPTSISKTVTADIPIVGDARQVLEQMLELLSQESAHQPLDEIRDWWQQIEQWRARQCLKYDTHSEKIKPQAVIETLWRLTKGDAYVTSDVGQHQMFAALYYPFDKPRRWINSGGLGTMGFGLPAALGVKMALPEETVVCVTGDGSIQMNIQELSTALQYELPVLVVNLNNRYLGMVKQWQDMIYSGRHSQSYMQSLPDFVRLAEAYGHVGIQISHPHELESKLSEALEQVRNNRLVFVDVTVDGSEHVYPMQIRGGGMDEMWLSKTERT | soluble
MSLDGKPLADKMRPTTLNNYMGQNKVLGENTMLRNLLQANDIPSIILWGPPGCGKTTLAHIIAKNAQKSSSRFVTLSATSASTSDVREFIKQAQNEQRLFKRKTILFVDEIHRFNKMQQDTFLPHVECGTITLIGATTENPSFQVNTALLSRCRVIVLEKLSVEAMETILMRAVDSLGLKVLKDGEQLVGSSSDVSETSVYVEEKALTTLAHLCDGDARTGLNGLQLSVQASLAAEKDPIKQGIVIKEEHIKEGLQRSHILYDRAGEEHYNCISALHKSMRGSDKNASLYWLGRMLEGGEDPLYVARRLVRFASEDIGLADPQALTQAVSTYQACHFIGMPECDVILAQCVMYMACAPKSVTVYSAYNKVKNCLKNHKGPLPPVPLHLRNAPTKLMKGLGYGKGYKYNPNFSEPVEQDYMPEEMKGVTEGHHHHHH | not soluble
MRYPESLLKLTRALSRLPGIGPKTAQRLALHLAFHKEEAEALAEALEGIKRVRACRECGNLAEGELCPICQDEDRDRSLLAVVESVADLYALERSGEFRGLYHVLGGALNPLEGIGPKELNLEGLFRRLEGVEEVVLATSMTVEGEATALYLAEELKKRGVRVTRPAYGLPVGGSLEYADEVTLGRALEGRRPV | soluble
MSYNSIRLPQDLPIYYKNFFPVKPFTKWLCYGQNYGDYFNRREFTFILADDVHIRYRSYNDEHSFVKALSSTNPEKLDIGAVYNHEPINNKRYTDYQAVERELVFDIDLTDYDPVRNCCKDATVCPKCWKFMVLAVRILDFQLEEMFNFKARMWVFSGRRGVHCWVGDKKARMLNNNQRSAIATRLNLFKKNGQCEVTEGRAKLTRVPPTVRDAFNVALKDGVFEKMIYEQGWLDNDRFIIDYQYMSEFGRDDLRRISESFKTPQERWHMLRGLFDNDYRKTLSQNDGLLDFVNNARSRPKKVLLYFVLQRCYPRLDANVTTGTNHLLKSPFCIHPKTGNVAVPLNVEKIGEFDVSKCPRIDHVVEELSSLLTERGNDGDEDSKNRKFLAYKHGALSPYVENFEMFVSACIS | not soluble
MKTKNKILHANCLQLGGKGLLIIGPSGSGKSTLTLSLLDRAGWSKREAKLISDDYTMLRVENGKLQGSTPEGLQGGIEIRGVGLYTIEFEKQTTIDCVILLGPEYERFSTNQTFKFADLHIPLLKLPSLHEADCTAICQAIEAFFFRKVWLKSV | not soluble
MNNTEPWKKYVPETVSLYHVDYRENLNEREDLQEQCIRNNNMERLYETVMECYAEQEAESLLKILGEIKEKMAEEKRQEEFEEHREEITDLILSRSDTDPAEELIKNSAAVNMYYSPGEKIEERIGKASKTMSCYKVRRALKLKKGQFDTLIEELVDNATYGGELRIYFNAGFNELVTNDNGKDFRTIRFHRDVIVAVANSFNGSGYHISLPLDITFPFVRDRLFVDSQVRYSYATEVCGMCRDWCDSTSWETEYKTVRNTSRNRQKEKTLSTN | not soluble
MATNFLVGEKIWFHKFKYGDAERRFYEQMNGPVAGASLQEASMILHDIARARENIPKSLAGSLGPGASSGPSGDHSELVVRIASLEVDNQRDLAERAGEELARPLGHSPADPAHVSHAPSGAPGQEASHTSRG | soluble
MVVVYVVKIGGSLTNNAVNLLENLKKLGEKVVIIPGGGNFANVVRNLHENEKINDISAHKLATMCTDITGTYFSEISGIKTADNLFDAKRILQNESIVIILPSNIILSTDELPCSWEVTSDSFAAYIAKLLNSKTLIIATDVDGIYDKYPEGKLLNTINTKTIKGFTSVDKHLPKLISEYGIKCFVVNGNHPERINNIFKGVVDTYTKITLKLEHHHHHH | not soluble
MSLHILHIASSPRGERSVSLKLASRYLETLTSLHPESTVDVLDVWTIDLLPFDGPALEAKYADLQGVQMSDEQQAVWKQIHALGERFHRADVILFSVPMWNFGVPYRLKHLIDSVSQRGVLFEFDAQGMRGLLKGKNVVVFASRGVALGEDFPTEAYDHQVAYLKTWARMVGIPTIDAVLSEATLADPATAEANFTAALAEASKLAAAVQEGHHHHHH | soluble
MGKSDFLSPKAIANRIKSKGLQKLRWYCQMCQKQCRDENGFKCHCMSESHQRQLLLASENPQQFMDYFSEEFRNDFLELLRRRFGTKRVHNNIVYNEYISHREHIHMNATQWETLTDFTKWLGREGLCKVDETPKGWYIQYIDRDPETIRRQLELEKKKKQDLDDEEKTAKFIEEQVRRGLEGKEQETPVFTELS | soluble
MTDEERIELQQNNPLHGLKLETMLQELVDFYGWDILDTAMRFNCFNTKPSIASSVKYLKKTEWAREKLENFYLYRFKRMPRASEEEYNLPPRARTFPHGLEPKEPMPLTVDSILNSQAKAASSFKKRSSRGRPTRRLEHHHHHH | soluble
PCRECGRPMMIRTASTGVFLGCSGYSLPPKERCKATVNLIPGDEIAADDEGESESRVLRGKHRCPICSTAMDAYLLDEKHKLHICGNNPDCPGYEIEEGQYRIKGYEGPSLECDKCGSEMQLKTGRFGKFFGCTNPTCKNTRKLLK | not soluble
CVTGDTLVFTDKGLIEARKLEVGMKVWSGDGWNEIKEVINNGVKPVLKLKLKTGLEIKVTEEHKIFTGEGWKEAKDLKVGDKLYLPVSYPELDFPVKEENDFYEFLGYFLGDGSLSVSNHVSLHVGNDKELALYFKEKVEKYAGAAYLIERDGQYIIDVHRKEFAEKIKKIFGIEITDSKEKDIPSSLLAVNSEAMKALLRGLFSADGSVYDANGSITVALSSTSYPLLRKVQILLLSLGIPSTLTGEKDQDVKIIKGNEYETLPTYRLIISGERASLFFNKIGLIGEKKKKFLELMAGKTTYSTLNNHLYQEIVSIEPAGEEEVFDITAPPKYTWITNGILSLD | soluble
MKEKGGDSLKYCYQCGLCDSVCPWNRVRQFSMRKIVRQGTFGLTEIEQEDIWRCSTCGTCPSRCPRGVNQIEAGVAMRRIGAEYDVYPGHVGTIRNVVASLTSEGNSLEHHHHHH | not soluble
ISLKYTAARLHEKGVLLEIEDLQVNQFKNVIFEISPTEEVGDFEVKAKFMGVQMETFMLHYQDLLQLQYEGVAVMKLFDRAKVNVNLLIFLLNKKFYGK | soluble
MRKVTAAVMASTLAFSFLSHAAEVVTSDNWHPGDGATQRSAQNHMFDGISLTEHQRQQMRDLMQQARHEQPPVNVSEMETMHRLVTAEKFDESAVRAQAEKMAQEQVARQVEMARVRNQMYRLLTPEQQAVLNEKHQQRMEQLRDVAQWQKSSSLKLLSSSNSRSQLEHHHHHH | not soluble
MGSDKIHHHHHHMESFYRTHAYLVEHTNAPVRRDLMDEIDWSDRLIGIKGTRGVGKTTFLLQYAKEKFGTDRSCLFINMNNFYFSGHSLVDFANEFQKRGGKVLLIDQVFKHPEWSKELRMCYDRFPSLKIVFTGSSVMRLKEENLELRDIAKSYNLRGFSFREFLNLQTGMKFRAYSLEEILSTHEQIAKGVLSKVRPLDYFQDYLHHGFYPFFLEKRNFSENLLKTMNMMVEVDILLIKQIELKYLSKIKKLLYLLAVDGPKAPNVSQLASDVQTSRATVMNYIKYLADARLINLVYPKGEEFPKKPSKIMMHNSNLMYSIYPVKVEEQDVLDTFFVNTLWKDHKVHKGDKNVSFMVDEVMPFKICAEGTKIKNNPDVTYALQKAEIGRGNQIPLWMFGFLY | not soluble
MSLAKFAPVQYKYIIKAEFEIDGIVDREDIIGAIFGQTEGLLGMELDLRELQKQGKLGRIEVEYKRVGNKTIGTITIPTSLKAVETSLIAAAIETVDRVGPAKARFRVKEIVDVRSSKREYIRNRAKELFVQMMSKTAPDIEELRRELEEAYYSKQLIEYGEEKLPAGPLVEKSDEIILVEGRADVVNLVKHGILNVLGMNGINIPKSVVELSKRKKVTLFIDGDRGGELVLRNMLAAGADIDYVAVAPPGREVEELTNKEILKALKSKIPLEQYIKNLRISINNDENKEKYKELLSKVFDTKKAIVFDEQFNIIDEKPLEEIDKLPSAYGIAIDKILDNETYAKIKGKYQLILALDSNVNAQERVITLKDIQEGHHHHHH | not soluble
